Source: patent US20120184718A1

Biological target: human FAS polypeptide (human) (UniProt P25445)
Experiment: cell-based or functional assay

Sequence of UniProt P25445 (P25445 26-335 limits assumed): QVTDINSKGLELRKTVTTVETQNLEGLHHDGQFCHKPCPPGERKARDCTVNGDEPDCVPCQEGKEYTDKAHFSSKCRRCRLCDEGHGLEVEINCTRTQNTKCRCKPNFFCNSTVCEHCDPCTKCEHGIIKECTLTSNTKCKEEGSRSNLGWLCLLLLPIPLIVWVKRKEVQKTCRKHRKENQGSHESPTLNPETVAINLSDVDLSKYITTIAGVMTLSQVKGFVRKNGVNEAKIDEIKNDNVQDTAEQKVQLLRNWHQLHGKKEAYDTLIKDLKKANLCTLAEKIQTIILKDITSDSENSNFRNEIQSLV

**Q.** For HFE7A IgG (antibody), which apoptosis (DNA fragmentation), U87-MG cells, 24 hours, cross-linked antibody (fold of cross-linked ApomAb) is on record?
**A.** 2
